This is an account of results in patent publication US6720153B1, “Luciferase reporter bioassay of parathyroid hormone compounds” (Aventis Pharmaceuticals Inc., priority 1998, dated 2004).

The assay has as its target T1, PTH receptor (Homo sapiens, UniProt Q03431).
T1 construct: expressed in transfected cells; host or cells: HEK-293
T1 sequence (Q03431 27-593): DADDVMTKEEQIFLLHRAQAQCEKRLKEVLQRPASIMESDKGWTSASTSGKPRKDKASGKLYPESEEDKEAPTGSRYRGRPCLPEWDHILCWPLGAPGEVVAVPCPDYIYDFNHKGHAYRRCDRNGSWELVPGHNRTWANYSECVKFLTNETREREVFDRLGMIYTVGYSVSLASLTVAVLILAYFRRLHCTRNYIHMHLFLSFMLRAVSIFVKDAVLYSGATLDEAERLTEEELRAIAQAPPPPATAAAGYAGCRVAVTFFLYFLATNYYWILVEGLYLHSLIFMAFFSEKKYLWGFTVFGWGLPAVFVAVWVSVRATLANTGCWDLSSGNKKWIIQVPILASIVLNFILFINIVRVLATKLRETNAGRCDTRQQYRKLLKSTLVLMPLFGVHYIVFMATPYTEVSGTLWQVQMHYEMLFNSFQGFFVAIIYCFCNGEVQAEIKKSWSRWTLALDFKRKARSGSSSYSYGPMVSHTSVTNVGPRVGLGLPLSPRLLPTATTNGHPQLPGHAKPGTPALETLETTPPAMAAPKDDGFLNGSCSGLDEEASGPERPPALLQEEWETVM
As to the kind of experiment: Luciferase reporter assay in hPTH receptor-expressing HEK-293 cells. The assay is classed as cell-based. Conditions: clones of PTH receptor expressing HEK-293 cells bearing pMCL3zeo luciferase reporter gene; clones selected for assay development. The source says: This cell line is obtained as described by Pines et al., Endocrinology, 1994, 135(4), 1713-1716, incorporated herein by reference.
The firefly luciferase reporter gene bearing the cAMP responsive elements is amplified by PCR from the pDMC16LUC vector using the method of Spengler et al., Nature, 1993, 365: 170-175, incorporated herein by reference. The PCR product containing the MMTV promoter, sixteen cAMP responsive elements and the luciferase gene is inserted into the zeocin resistant vector (pUTSV1 from InVitrogen). The final vector, termed pMCL3zeo, is then introduced into PTH receptor expressing HEK-293 cells using the lipofectamine method (reagents and method obtained from Gibco/BRL). Cells incorporating the luciferase reporter gene are selected by including zeocin in the culture medium. By limited dilution, different cell clones are isolated and expanded. These clones are tested for their responsiveness to PTH in terms of luciferase expression.
hPTH receptor-expressing HEK-293 cells bearing the luciferase reporter gene are cultured to 80-90% confluency. […] The luciferase activity in the lysates is measured by the addition of the luciferin substrate (Promega assay kit) to effect light production. The output of light is measured in a Wallac Trilux microbeta plate reader.
For orientation: Reporter assays use an easily measured gene product as a stand-in for the process of interest.

With parathyroid hormone [PTH], the luciferase induction is 5-6 fold.
